From article PMC3739785, “A Primate Specific Extra Domain in the Molecular Chaperone Hsp90” (PLoS ONE, 2013) come the findings set out here.

Experiment [1] addresses T1, human Hsp90α (human, UniProt P07900-1 1-732).
T1 construct: human Hsp90α (Hsp90AA1-1), canonical isoform, 732 aa as printed; also called Hsp90AA1-1; heat shock protein 90
Description: SEC; chaperone and cochaperone at 2.5 µM, 10 min at 30°C following 10 min on ice, 40 mM Hepes-KOH pH 7.4, 50 mM KCl, 2 mM Mg2Cl; Superdex 200 HR 10/30 in the same buffer; fractions analysed by SDS-PAGE (Western blot for Aha1 and Cdc37 in the Hsp103 runs); shift of the cochaperone to higher molecular mass. The note with it: both partners purified.

Experiment [2] has as its target T2, human Hsp103 (human, UniProt P07900-2 1-854).
T2 construct: human Hsp103, the isoform of Hsp90α with an additional 122 aa (E domain) at the N-terminus; printed length 854 aa (also printed as 852 aa for Hsp90AA1-2); also called Hsp90AA1-2; Hsp90α with extra E domain
Described as above. The note with it: both partners purified.

B1: human Cdc37 (natural protein, UniProt Q16543 1-378, looked up)
chain: MVDYSVWDHIEVSDDEDETHPNIDTASLFRWRHQARVERMEQFQKEKEELDRGCRECKRKVAECQRKLKELEVAEGGKAELERLQAEAQQLRKEERSWEQKLEEMRKKEKSMPWNVDTLSKDGFSKSMVNTKPEKTEEDSEEVREQKHKTFVEKYEKQIKHFGMLRRWDDSQKYLSDNVHLVCEETANYLVIWCIDLEVEEKCALMEQVAHQTIVMQFILELAKSLKVDPRACFRQFFTKIKTADRQYMEGFNDELEAFKERVRGRAKLRIEKAMKEYEEEERKKRLGPGGLDPVEVYESLPEELQKCFDVKDVQMLQDAISKMDPTDAKYHMQRCIDSGLWVPNSKASEAKEGEEAGPGDPLLEAVPKTGDEKDVSV
notes: human Cdc37, cochaperone of Hsp90
For the molecule B1, the binding result in experiment [1] and in experiment [2] was “binds” throughout.
